Laboratory results as given in US20240279318A1 (NANJING LEGEND BIOTECH, published 2024).
Where a chain is given by its changes, count along the chain named.

B1: AS179723 scFv-mIgG2aFc (Fc fusion, not shown: a dimerising Fc or GST)
chain: QAGLTQPPSMSGSPRQSVTISCTGSSNNIGGNYVNWYQHLPGTAPKLLIYDNKNRPSGVPEQISGSKSGSSASLTITGLQAEDEGDYYCASWDDSLSAVVFGGGTHLTVLGGGGSGGGGSGGGGSEVQLVESGGGLVQPGGSLRLSCAASGFTFLNYAMSWVRQAPGKGLEWVSSNSGAGSTYYSDSVKGRFTISRDYAKNVVYLQLNSLKTEDTGMYYCAKGTNVGSWSSLHYWGQGTQVTVSS
notes: Camel scFv; i647-labelled for flow cytometry
B2: AS179732 scFv-mIgG2aFc (Fc fusion, not shown: a dimerising Fc or GST)
chain: B1 chain with Q1N, A2F, G3M, N27S, K53S, P56A, Q62R, I63F, A98G, V99A
notes: as for B1
B3: ET1402L1 scFv fused to a C-terminal mouse IgG2a Fc region (Fc fusion, not shown: a dimerising Fc or GST)
chain: QSVLTQPASVSGSPGQSITISCTGTSSDVGGYNYVSWYQQHPGKAPKLMIYDVNNRPSEVSNRFSGSKSGNTASLTISGLQAEDEADYYCSSYTTGSRAVFGGGTKLTVLGGGGSGGGGSGGGGSEVQLVQSGAEVKKPGESLTISCKASGYSFPNYWITWVRQMSGGGLEWMGRIDPGDSYTTYNPSFQGHVTISIDKSTNTAYLHWNSLKASDTAMYYCARYYVSLVDIWGQGTLVTVSS
notes: also called positive control antibody
B4: AS170036 scFv-mIgG2aFc (Fc fusion, not shown: a dimerising Fc or GST)
chain: QLVLTQPSSVSGTPGQTVTISCAGTSSDVGSENYVSWYRQLPGTAPKLLIYQVNKRASGIADRFSGSKSGNTASMTISGLQSADEADYYCASYRSSDHNIVFGGGTHLTVLGGGGSGGGGSGGGGSAVQLVESGGGLVQPGGSLRLSCTASGFTFSSYAMSWVRQAPGKGLEWVSTINSGTGSPYYADSVKGRFTISRDNAKNTLYLQLNSLKTEDTAMYYCAKNFFDGSWFLGPPAMDYWGKGTLVTISS
notes: Camel scFv
B5: AS148691 scFv-mIgG2aFc (Fc fusion, not shown: a dimerising Fc or GST)
chain: DIQMTQSPSSLSASVGDRVTITCRASQSVSSAVAWYQQKPGKAPKLLIYSASSLYSGVPSRFSGSRSGTDFTLTISSLQPEDFATYYCQQYYGAYLITFGQGTKVEIKGGGGSGGGGSGGGGSEVQLVESGGGLVQPGGSLRLSCAASGFNLYYSSIHWVRQAPGKGLEWVASIYSSYGSTSYADSVKGRFTISADTSKNTAYLQMNSLRAEDTAVYYCARVGPGYYGIDYWGQGTLVTVSS
notes: i647-labelled for flow cytometry
B6: AS167830 sdAb-mIgG2aFc (Fc fusion, not shown: a dimerising Fc or GST)
chain: QVKLVESGGGSVQAGGSLRLSCAASRSSEYMNRRFCMGWFRQASGKEREGVAVVYIGGGRTYYADSVKGRFTISQDNAKNTLYLQMNNLKPEDTAMYYCTADVDPYESSWSRDLGYWGQGTQVTVSS
notes: as for B5
B7: AS170036 VL1VH1 scFv-mIgG2aFc (Fc fusion, not shown: a dimerising Fc or GST)
chain: QSALTQPRSVSGSPGQSVTISCAGTSSDVGSENYVSWYQQHPGKAPKLMIYQVNKRASGVPDRFSGSKSGNTASLTISGLQAEDEADYYCASYRSSDHNIVFGGGTKLTVLGGGGSGGGGSGGGGSEVQLVESGGGLVQPGGSLRLSCAASGFTFSSYAMSWVRQAPGKGLEWVSTINSGTGSPYYADSVKGRFTISRDNSKNTLYLQMNSLRAEDTAVYYCAKNFFDGSWFLGPPAMDYWGQGTLVTVSS
notes: Humanized

How the values were obtained:
[1] = molecular target: T1, OR6C1 peptide loaded T2 cells (human, UniProt P61769 21-119); assay: flow cytometry, peptide-loaded T2 cells
T1 construct: whole, on cells; also called OR6C1/T2

[2] = molecular target: T2, PTP4A1 peptide loaded T2 cells (human, UniProt P61769 21-119); assay: flow cytometry, peptide-loaded T2 cells
T2 construct: whole, on cells; also called PTP4A1-pulsed T2 cells

[3] = molecular target: T3, RP1 peptide loaded T2 cells (human, UniProt P61769 21-119); assay: flow cytometry, peptide-loaded T2 cells
T3 construct: whole, on cells; also called RP1/T2

[4] = molecular target: T4, RCL1 peptide loaded T2 cells (human); assay: flow cytometry, peptide-loaded T2 cells
T4 construct: whole, on cells; also called RCL1/T2

[5] = molecular target: T5, ZNF566 peptide loaded T2 cells (human, UniProt P61769 21-119); assay: flow cytometry, peptide-loaded T2 cells
T5 construct: whole, on cells; also called ZNF566/T2

[6] = molecular target: T6, ARNTL peptide loaded T2 cells (human, UniProt P61769 21-119); assay: flow cytometry, peptide-loaded T2 cells
T6 construct: whole, on cells; also called ARNTL/T2

[7] = molecular target: T7, ATG9A peptide loaded T2 cells (human, UniProt P61769 21-119); assay: flow cytometry, peptide-loaded T2 cells
T7 construct: whole, on cells; also called ATG9A/T2

[8] = molecular target: T8, BRCA2 peptide loaded T2 cells (human); assay: flow cytometry, peptide-loaded T2 cells
T8 construct: whole, on cells; also called BRCA2/T2

[9] = molecular target: T9, CDC14A peptide loaded T2 cells (human, UniProt P61769 21-119); assay: flow cytometry, peptide-loaded T2 cells
T9 construct: whole, on cells; also called CDC14A/T2

[10] = molecular target: T10, NR2E1 peptide loaded T2 cells (human, UniProt P61769 21-119); assay: flow cytometry, peptide-loaded T2 cells
T10 construct: whole, on cells; also called NR2E1/T2

[11] = molecular target: T11, OR1I1 peptide loaded T2 cells (human, UniProt P61769 21-119); assay: flow cytometry, peptide-loaded T2 cells
T11 construct: whole, on cells; also called OR1I1/T2

[12] = molecular target: T12, OR51B6 peptide loaded T2 cells (human, UniProt P61769 21-119); assay: flow cytometry, peptide-loaded T2 cells
T12 construct: whole, on cells; also called OR51B6/T2

[13] = molecular target: T13, AFP158/HLA-A*02:01 complex (human); assay: SPR, antibody captured via mIgG2a-Fc, complex as analyte
T13 construct: biotinylated on the BSP by BirA for ELISA and panning; also called biotinylated AFP158/HLA-A*02:01 complex; Bio-AFP158
Experimental: (§1) The binding affinity between selected antibodies and AFP158/HLA-A*02:01 complex was determined by surface plasmon resonance (SPR) on a BIAcore T200 instrument (GE Healthcare). The experiment was carried out as follows. The purified sdAb/scFv-mIgG2aFc protein were captured through mIgG2a-Fc onto the sensorchip. […] On-rate (kₐ) and off-rate (kd) were calculated based on association and dissociation curve, and were used to estimate the equilibrium dissociation constant (KD).

[14] = molecular target: T13, AFP158/HLA-A*02:01 complex; assay: SPR, scFv-mIgG2aFc from supernatant captured, complex as analyte
Experimental: as §1
(§2) Humanized heavy chains and light chains were combined, and used to produce a series of humanized antibodies. These antibodies were synthesized as scFv-mIgG2aFc and transiently produced using HEK293 cells. The antibodies in the supernatant were subjected to SPR affinity assessment.

[15] = molecular target: T13, AFP158/HLA-A*02:01 complex; assay: as above; remark: listed apart in the source
Experimental: as §1, §2

[16] = molecular target: T2, PTP4A1 peptide loaded T2 cells; assay: flow cytometry, 30 or 50 nM i647-labelled antibody
Experimental: At the concentration of 30 or 50 nM, binding of 7 antibodies to T2 cells loaded with AFP158, 50 endogenous self-peptides and 12 homologous peptides were carried out using flow cytometry.

[17] = molecular target: T13, AFP158/HLA-A*02:01 complex; assay: SPR, scFv-mIgG2aFc from supernatant captured, complex as analyte; remark: listed apart in the source
Experimental: as §1, §2

binding result [1] | binding result [2] | binding result [3] | binding result [4] | binding result [5] | binding result [6] | binding result [7] | binding result [8] | binding result [9] | binding result [10] | binding result [11] | binding result [12] | Kd [13] | koff [13] | kon [13] | also measured | Binder
no binding (tested: 30 or 50 nM) | no binding (tested: 30 or 50 nM) | no binding (tested: 30 or 50 nM) | no binding (tested: 30 or 50 nM) | no binding (tested: 30 or 50 nM) | no binding (tested: 30 or 50 nM) | no binding (tested: 30 or 50 nM) | no binding (tested: 30 or 50 nM) | no binding (tested: 30 or 50 nM) | no binding (tested: 30 or 50 nM) | no binding (tested: 30 or 50 nM) | no binding (tested: 30 or 50 nM) | 39 nM | 0.0042 s⁻¹ | 110000 M⁻¹ s⁻¹ | Kd [14]: 28 nM; koff [14]: 0.0041 s⁻¹; kon [14]: 150000 M⁻¹ s⁻¹ | B1
no binding (tested: 30 or 50 nM) | no binding (tested: 30 or 50 nM) | no binding (tested: 30 or 50 nM) | no binding (tested: 30 or 50 nM) | no binding (tested: 30 or 50 nM) | no binding (tested: 30 or 50 nM) | no binding (tested: 30 or 50 nM) | no binding (tested: 30 or 50 nM) | no binding (tested: 30 or 50 nM) | no binding (tested: 30 or 50 nM) | no binding (tested: 30 or 50 nM) | no binding (tested: 30 or 50 nM) | 67 nM | 0.0086 s⁻¹ | 130000 M⁻¹ s⁻¹ | Kd [15]: 47 nM; koff [15]: 0.0075 s⁻¹; kon [15]: 160000 M⁻¹ s⁻¹ | B2
 |  |  |  |  |  |  |  |  |  |  |  |  |  |  | binding result [16]: binds | B3
no binding (tested: 30 or 50 nM) | no binding (tested: 30 or 50 nM) | no binding (tested: 30 or 50 nM) | no binding (tested: 30 or 50 nM) | no binding (tested: 30 or 50 nM) | no binding (tested: 30 or 50 nM) | no binding (tested: 30 or 50 nM) | no binding (tested: 30 or 50 nM) | no binding (tested: 30 or 50 nM) | no binding (tested: 30 or 50 nM) | no binding (tested: 30 or 50 nM) | no binding (tested: 30 or 50 nM) | 250 nM | 0.06 s⁻¹ | 240000 M⁻¹ s⁻¹ | Kd [17]: 450 nM; koff [17]: 0.19 s⁻¹; kon [17]: 430000 M⁻¹ s⁻¹ | B4
no binding (tested: 30 or 50 nM) | no binding (tested: 30 or 50 nM) | no binding (tested: 30 or 50 nM) | no binding (tested: 30 or 50 nM) | no binding (tested: 30 or 50 nM) | no binding (tested: 30 or 50 nM) | no binding (tested: 30 or 50 nM) | no binding (tested: 30 or 50 nM) | no binding (tested: 30 or 50 nM) | no binding (tested: 30 or 50 nM) | no binding (tested: 30 or 50 nM) | no binding (tested: 30 or 50 nM) | 71 nM | 0.005 s⁻¹ | 71000 M⁻¹ s⁻¹ |  | B5
no binding (tested: 30 or 50 nM) | no binding (tested: 30 or 50 nM) | no binding (tested: 30 or 50 nM) | no binding (tested: 30 or 50 nM) | no binding (tested: 30 or 50 nM) | no binding (tested: 30 or 50 nM) | no binding (tested: 30 or 50 nM) | no binding (tested: 30 or 50 nM) | no binding (tested: 30 or 50 nM) | no binding (tested: 30 or 50 nM) | no binding (tested: 30 or 50 nM) | no binding (tested: 30 or 50 nM) | 260 nM | 0.07 s⁻¹ | 270000 M⁻¹ s⁻¹ |  | B6
no binding (tested: 30 or 50 nM) | no binding (tested: 30 or 50 nM) | no binding (tested: 30 or 50 nM) | no binding (tested: 30 or 50 nM) | no binding (tested: 30 or 50 nM) | no binding (tested: 30 or 50 nM) | no binding (tested: 30 or 50 nM) | no binding (tested: 30 or 50 nM) | no binding (tested: 30 or 50 nM) | no binding (tested: 30 or 50 nM) | no binding (tested: 30 or 50 nM) | no binding (tested: 30 or 50 nM) |  |  |  | Kd [17]: 360 nM; koff [17]: 0.062 s⁻¹; kon [17]: 170000 M⁻¹ s⁻¹ | B7
